A word on the EC50: it is the concentration at which the effect is half-maximal. By Kd is commonly meant the free concentration of one partner at which half of the binding sites on the other are occupied at equilibrium, for simple one-to-one binding. The term koff denotes the rate constant with which the complex falls apart. One may read the kon as the second-order rate constant of association.

Substitutions are numbered along the chain they refer to.

Experimental findings from patent EP4506361A1 (Biotheus Inc., dated 2025) are described below.

The labels stand for the following.
B1: Amivantamab single-arm antibody (antibody, human IgG1, kappa, L234A L235A)
heavy: not shown
light: DIQMTQSPSSVSASVGDRVTITCRASQGISNWLAWFQHKPGKAPKLLIYAASSLLSGVPSRFSGSGSGTDFTLTISSLQPEDFATYYCQQANSFPITFGQGTRLEIKRTVAAPSVFIFPPSDEQLKSGTASVVCLLNNFYPREAKVQWKVDNALQSGNSQESVTEQDSKDSTYSLSSTLTLSKADYEKHKVYACEVTHQGLSSPVTKSFNRGEC
chain: not shown
notes: also called control antibody Amivantamab
B2: Onartuzumab (antibody, human IgG1, kappa, L234A L235A)
heavy: not shown
light: DIQMTQSPSSLSASVGDRVTITCKSSQSLLYTSSQKNYLAWYQQKPGKAPKLLIYWASTRESGVPSRFSGSGSGTDFTLTISSLQPEDFATYYCQQYYAYPWTFGQGTKVEIKRTVAAPSVFIFPPSDEQLKSGTASVVCLLNNFYPREAKVQWKVDNALQSGNSQESVTEQDSKDSTYSLSSTLTLSKADYEKHKVYACEVTHQGLSSPVTKSFNRGEC
chain: not shown
notes: Control antibody, made from three plasmids in Expi-CHO cells; also called control antibody onartuzumab; antibody onartuzumab
B3: anti-c-Met single-arm antibody 187 (antibody, human IgG1, kappa, L234A L235A)
heavy: not shown
light: DIVMTQSPSSVSASVGDRVTITCRASQGISSWLAWYQQKPGKAPNLLIYAASNLPSGVPSRFSGSGSGTVFTLTISSLQPEDFATYYCQQSNSFPLTFGGGTKVEIKRTVAAPSVFIFPPSDEQLKSGTASVVCLLNNFYPREAKVQWKVDNALQSGNSQESVTEQDSKDSTYSLSSTLTLSKADYEKHKVYACEVTHQGLSSPVTKSFNRGEC
chain: not shown
B4: anti-c-Met single-arm antibody 221 (antibody, human IgG1, kappa, L234A L235A)
heavy: not shown
light: EIVLTQSPGTLSLSPGERATLSCRASQSVSSSYLAWYQQKPGQAPRLLIYGPSSRATGIPDRFSGSGSGTDFTLTISSLQPADFASYYCQQSYITPYTFGQGTKVEIKRTVAAPSVFIFPPSDEQLKSGTASVVCLLNNFYPREAKVQWKVDNALQSGNSQESVTEQDSKDSTYSLSSTLTLSKADYEKHKVYACEVTHQGLSSPVTKSFNRGEC
chain: not shown
B5: anti-c-Met single-arm antibody 223 (antibody, human IgG1, kappa, L234A L235A)
heavy: not shown
light: DIQLTQSPSSLSASVGDRVTITCRASQSIITYLNWYQQKPGKAPKLLIYAASSLQSGVPSRFSGSGSGTDFTLNISSLQPEDFATYYCQQANSLPYTFGQGTKVEIKRTVAAPSVFIFPPSDEQLKSGTASVVCLLNNFYPREAKVQWKVDNALQSGNSQESVTEQDSKDSTYSLSSTLTLSKADYEKHKVYACEVTHQGLSSPVTKSFNRGEC
chain: not shown
B6: LY2875358 single-arm antibody (antibody, human IgG1, kappa, L234A L235A)
heavy: not shown
light: DIQMTQSPSSLSASVGDRVTITCSVSSSVSSIYLHWYQQKPGKAPKLLIYSTSNLASGVPSRFSGSGSGTDFTLTISSLQPEDFATYYCQVYSGYPLTFGGGTKVEIKRTVAAPSVFIFPPSDEQLKSGTASVVCLLNNFYPREAKVQWKVDNALQSGNSQESVTEQDSKDSTYSLSSTLTLSKADYEKHKVYACEVTHQGLSSPVTKSFNRGEC
chain: not shown
notes: also called control antibody LY2875358
B7: anti-c-Met single-arm antibody 23 (antibody, human IgG1, kappa, L234A L235A)
heavy: not shown
light: DIVMTQSPSSLSASVGDRVTITCRASQSFSDYLNWYRQKPGKAPKLLLFAASSLQSGVPSRFSGSGSGTDFTLTISSLQPEDFATYYCQQSYSPPYTFGQGTKLEIKRTVAAPSVFIFPPSDEQLKSGTASVVCLLNNFYPREAKVQWKVDNALQSGNSQESVTEQDSKDSTYSLSSTLTLSKADYEKHKVYACEVTHQGLSSPVTKSFNRGEC
chain: not shown
B8: anti-c-Met single-arm antibody 22 (antibody, human IgG1, kappa, L234A L235A)
heavy: not shown
light: B3 light with N45K, N53S, P55Q, R61K, V70E, Y87F, S91A, N92Y, S93G
chain: not shown
B9: anti-c-Met single-arm antibody 74 (antibody, human IgG1, kappa, L234A L235A)
heavy: not shown
light: B3 light with S30N, N53S, P55Q, S65R, V70D, T72S, Q79H, S91A, N92K, S93G
chain: not shown
B10: anti-c-Met single-arm antibody 136 (antibody, human IgG1, kappa, L234A L235A)
heavy: not shown
light: B3 light with N45K, A51V, N53S, P55Q, V70D, Y87F, S91A
chain: not shown

T1 sequence (F7H1K4 entry or part of it limits assumed, form in doubt): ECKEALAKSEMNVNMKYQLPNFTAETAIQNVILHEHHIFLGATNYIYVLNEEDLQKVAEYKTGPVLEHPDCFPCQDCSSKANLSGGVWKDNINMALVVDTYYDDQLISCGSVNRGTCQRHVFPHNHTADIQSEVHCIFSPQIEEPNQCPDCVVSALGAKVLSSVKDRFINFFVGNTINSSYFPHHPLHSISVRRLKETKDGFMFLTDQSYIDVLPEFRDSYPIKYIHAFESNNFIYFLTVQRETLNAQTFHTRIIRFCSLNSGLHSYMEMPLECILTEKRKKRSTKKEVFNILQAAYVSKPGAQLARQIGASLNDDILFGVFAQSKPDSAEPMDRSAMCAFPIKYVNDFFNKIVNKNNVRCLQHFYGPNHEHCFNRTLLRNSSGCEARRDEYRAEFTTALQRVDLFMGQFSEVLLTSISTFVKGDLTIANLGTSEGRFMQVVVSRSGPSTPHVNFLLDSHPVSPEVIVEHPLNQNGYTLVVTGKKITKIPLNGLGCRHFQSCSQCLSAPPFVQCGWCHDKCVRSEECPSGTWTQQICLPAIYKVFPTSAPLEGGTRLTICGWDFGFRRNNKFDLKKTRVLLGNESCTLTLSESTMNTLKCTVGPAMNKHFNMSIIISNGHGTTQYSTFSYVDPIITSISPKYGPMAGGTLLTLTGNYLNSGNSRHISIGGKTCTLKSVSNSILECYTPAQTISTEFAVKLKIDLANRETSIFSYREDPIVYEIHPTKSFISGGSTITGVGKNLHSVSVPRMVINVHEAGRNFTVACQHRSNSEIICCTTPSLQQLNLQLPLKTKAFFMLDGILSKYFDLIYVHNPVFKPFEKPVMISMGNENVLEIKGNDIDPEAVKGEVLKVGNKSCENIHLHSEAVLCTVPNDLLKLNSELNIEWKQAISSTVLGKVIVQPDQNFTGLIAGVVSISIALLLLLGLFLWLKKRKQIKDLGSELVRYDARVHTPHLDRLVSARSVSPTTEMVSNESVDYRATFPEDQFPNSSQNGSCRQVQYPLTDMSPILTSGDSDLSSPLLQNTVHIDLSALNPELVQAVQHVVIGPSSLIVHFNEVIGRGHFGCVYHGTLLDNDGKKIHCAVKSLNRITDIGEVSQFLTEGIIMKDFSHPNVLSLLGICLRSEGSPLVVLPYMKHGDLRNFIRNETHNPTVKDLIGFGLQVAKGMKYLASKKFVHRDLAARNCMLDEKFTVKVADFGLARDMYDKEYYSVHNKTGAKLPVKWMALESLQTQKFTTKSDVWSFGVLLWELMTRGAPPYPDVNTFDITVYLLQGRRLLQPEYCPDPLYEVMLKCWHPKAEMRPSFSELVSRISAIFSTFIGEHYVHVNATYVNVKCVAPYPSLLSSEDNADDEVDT
T2 sequence (P08581 25-932 limits assumed): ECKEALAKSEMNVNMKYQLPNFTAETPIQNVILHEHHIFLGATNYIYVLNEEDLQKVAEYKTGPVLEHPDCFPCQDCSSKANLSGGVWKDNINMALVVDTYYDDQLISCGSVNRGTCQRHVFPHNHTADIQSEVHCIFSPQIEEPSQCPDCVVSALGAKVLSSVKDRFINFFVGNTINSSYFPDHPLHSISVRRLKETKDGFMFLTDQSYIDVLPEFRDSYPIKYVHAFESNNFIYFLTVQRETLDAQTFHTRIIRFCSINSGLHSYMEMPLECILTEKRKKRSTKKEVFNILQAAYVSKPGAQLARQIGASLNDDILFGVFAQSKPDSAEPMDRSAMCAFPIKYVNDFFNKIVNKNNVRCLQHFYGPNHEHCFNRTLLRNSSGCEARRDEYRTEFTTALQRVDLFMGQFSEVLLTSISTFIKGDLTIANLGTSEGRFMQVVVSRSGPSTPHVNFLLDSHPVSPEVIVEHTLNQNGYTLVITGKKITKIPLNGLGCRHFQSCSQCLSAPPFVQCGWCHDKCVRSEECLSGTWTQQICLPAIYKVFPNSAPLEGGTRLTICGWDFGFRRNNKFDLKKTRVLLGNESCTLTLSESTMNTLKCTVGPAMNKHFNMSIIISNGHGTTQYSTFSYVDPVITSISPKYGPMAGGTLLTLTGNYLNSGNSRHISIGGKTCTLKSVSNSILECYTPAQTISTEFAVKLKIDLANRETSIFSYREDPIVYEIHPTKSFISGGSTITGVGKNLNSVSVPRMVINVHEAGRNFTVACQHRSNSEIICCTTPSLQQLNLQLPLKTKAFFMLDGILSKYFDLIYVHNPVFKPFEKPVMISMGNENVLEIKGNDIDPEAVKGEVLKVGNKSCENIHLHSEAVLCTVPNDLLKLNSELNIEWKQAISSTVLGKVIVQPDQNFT

One experiment concerns the target T1, rhesus c-Met on HEK293T cells overexpressing rhesus c-Met (HEK293-Rhe c-Met) (rhesus monkey, UniProt F7H1K4 25-1381).
T1 construct: also called rhesus monkey c-Met
Nature of the experiment: flow cytometry on HEK293-Rhe c-Met cells. A general note: A flow cytometer gives signals particle by particle.
As to B1, the EC50 is 0.2 nM.

In turn, B2 showed an EC50 of 1.24 nM.

Take B3: the EC50 came out at 0.592 nM.

For B4, the response was half-maximal at 1.48 nM (EC50).

In the case of B5, the half-maximal effective concentration (EC50) was determined as 1.06 nM.

As to B6, the EC50 was determined as 0.749 nM.

The target of the next experiment is T1, rhesus c-Met on HEK293T cells …. The experiment can be described thus: flow cytometry on HEK293-Rhe c-Met cells, first EC50 column.
Turning to B1, the EC50 turned out to be 0.241 nM.

For B7, the EC50 is 0.746 nM.

In turn, B2 had an EC50 of 0.97 nM.

On to B8, for which a half-maximal response (EC50) required 0.726 nM.

In turn, B9 came in with a 50% effective concentration (EC50) of 1.46 nM.

B10 had an EC50 of 0.306 nM.

Molecule B6 displayed an EC50 of 0.868 nM.

The target of a further experiment is cynomolgus monkey c-Met protein (purchased from AcroBiosystems) (cynomolgus monkey, UniProt A0A2K5UM36 25-932). Nature of the experiment: BLI (ForteBio), antibody on AHQ sensor, cynomolgus monkey c-Met protein in solution.
cynomolgus monkey c-Met protein (purchased from AcroBiosystems), sequence (A0A2K5UM36 entry or part of it limits assumed, form in doubt): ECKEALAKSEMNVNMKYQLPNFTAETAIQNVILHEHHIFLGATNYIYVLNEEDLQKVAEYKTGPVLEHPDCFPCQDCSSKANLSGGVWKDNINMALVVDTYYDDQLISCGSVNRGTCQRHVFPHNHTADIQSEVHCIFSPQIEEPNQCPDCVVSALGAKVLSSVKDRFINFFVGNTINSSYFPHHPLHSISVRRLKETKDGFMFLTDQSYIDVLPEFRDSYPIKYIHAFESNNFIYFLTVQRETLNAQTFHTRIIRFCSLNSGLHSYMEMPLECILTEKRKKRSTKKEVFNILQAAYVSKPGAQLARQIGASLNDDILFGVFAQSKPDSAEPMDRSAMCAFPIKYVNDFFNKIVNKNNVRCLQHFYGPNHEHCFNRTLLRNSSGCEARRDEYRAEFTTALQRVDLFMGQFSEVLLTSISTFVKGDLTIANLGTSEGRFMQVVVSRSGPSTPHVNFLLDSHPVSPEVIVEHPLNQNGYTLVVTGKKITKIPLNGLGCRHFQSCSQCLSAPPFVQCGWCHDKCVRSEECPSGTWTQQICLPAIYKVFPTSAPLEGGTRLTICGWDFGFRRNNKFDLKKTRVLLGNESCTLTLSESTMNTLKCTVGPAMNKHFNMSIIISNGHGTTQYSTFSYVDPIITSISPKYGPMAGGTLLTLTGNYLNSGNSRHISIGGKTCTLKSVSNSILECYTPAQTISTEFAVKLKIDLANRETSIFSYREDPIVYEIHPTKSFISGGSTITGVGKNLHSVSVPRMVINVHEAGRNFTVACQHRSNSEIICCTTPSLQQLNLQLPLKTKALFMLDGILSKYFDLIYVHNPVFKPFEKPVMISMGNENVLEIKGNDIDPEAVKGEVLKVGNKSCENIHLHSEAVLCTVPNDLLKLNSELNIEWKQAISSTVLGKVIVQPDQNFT
As for B7, the affinity, expressed as Kd, was 26.5 nM; the koff is 0.00151 s⁻¹; the kon was 56900 M⁻¹ s⁻¹.

In turn, B8 yielded a Kd of 19 nM, a dissociation rate constant (koff) of 0.00259 s⁻¹ and a kon of 136000 M⁻¹ s⁻¹.

Molecule B9 registered an equilibrium dissociation constant (Kd) of 9.7 nM, a koff of 0.0026 s⁻¹ and a kon of 269000 M⁻¹ s⁻¹.

The molecule B10 yielded a Kd of 1.16 nM, a koff of 0.000426 s⁻¹ and an on-rate constant (kon) of 369000 M⁻¹ s⁻¹.

Turning to B3, binding was put at a Kd of 2.92 nM, the off-rate (koff) was 0.000947 s⁻¹ and the kon was determined as 324000 M⁻¹ s⁻¹.

Consider B4, for which binding was characterised by a dissociation constant (Kd) of 63.8 nM, the koff came to 0.00192 s⁻¹ and the association rate constant (kon) was 30100 M⁻¹ s⁻¹.

With B5, the Kd worked out at 16.2 nM, the koff was found to be 0.00109 s⁻¹ and the kon was found to be 67300 M⁻¹ s⁻¹.

Another experiment addresses T2, human c-Met protein (purchased from AcroBiosystems) (human, UniProt P08581 25-932).
T2 construct: Soluble antigen of the ForteBio assay; also called human c-Met antigen
Nature of the experiment: BLI (ForteBio), antibody on AHQ sensor, 100 nM human c-Met antigen, 1:1 model. In general terms: BLI is a label-free optical method that tracks binding on a fibre tip over time.
The molecule B7 displayed a Kd of 0.596 nM, a koff of 9.5e-05 s⁻¹ and a kon of 160000 M⁻¹ s⁻¹.

The molecule B8 showed a dissociation constant (Kd) of 4.29 nM, a koff of 0.000548 s⁻¹ and a kon of 128000 M⁻¹ s⁻¹.

As for B9, the affinity, expressed as Kd, was 6.01 nM; the off-rate constant (koff) worked out at 0.00108 s⁻¹; the kon was 179000 M⁻¹ s⁻¹.

B10 gave a Kd of 0.0293 nM, a koff of 6.71e-06 s⁻¹ and an on-rate (kon) of 229000 M⁻¹ s⁻¹.

The molecule B3 registered a Kd of 1.68 nM, a koff of 0.000369 s⁻¹ and an on-rate constant (kon) of 220000 M⁻¹ s⁻¹.

As for B4, the affinity, expressed as Kd, was 2.01 nM; the off-rate constant (koff) was 0.00037 s⁻¹; the kon came out at 184000 M⁻¹ s⁻¹.

For the molecule B5, the Kd is 9.76 nM, the koff came to 0.00163 s⁻¹ and the association rate constant (kon) was 167000 M⁻¹ s⁻¹.

The target of another experiment is T3, human c-Met on HEK293T cells overexpressing human c-Met (HEK293-Hu c-Met) (human, UniProt P08581 25-1390).
T3 construct: whole, on cells; also called human c-Met overexpression cells
T3 sequence (P08581 25-1390): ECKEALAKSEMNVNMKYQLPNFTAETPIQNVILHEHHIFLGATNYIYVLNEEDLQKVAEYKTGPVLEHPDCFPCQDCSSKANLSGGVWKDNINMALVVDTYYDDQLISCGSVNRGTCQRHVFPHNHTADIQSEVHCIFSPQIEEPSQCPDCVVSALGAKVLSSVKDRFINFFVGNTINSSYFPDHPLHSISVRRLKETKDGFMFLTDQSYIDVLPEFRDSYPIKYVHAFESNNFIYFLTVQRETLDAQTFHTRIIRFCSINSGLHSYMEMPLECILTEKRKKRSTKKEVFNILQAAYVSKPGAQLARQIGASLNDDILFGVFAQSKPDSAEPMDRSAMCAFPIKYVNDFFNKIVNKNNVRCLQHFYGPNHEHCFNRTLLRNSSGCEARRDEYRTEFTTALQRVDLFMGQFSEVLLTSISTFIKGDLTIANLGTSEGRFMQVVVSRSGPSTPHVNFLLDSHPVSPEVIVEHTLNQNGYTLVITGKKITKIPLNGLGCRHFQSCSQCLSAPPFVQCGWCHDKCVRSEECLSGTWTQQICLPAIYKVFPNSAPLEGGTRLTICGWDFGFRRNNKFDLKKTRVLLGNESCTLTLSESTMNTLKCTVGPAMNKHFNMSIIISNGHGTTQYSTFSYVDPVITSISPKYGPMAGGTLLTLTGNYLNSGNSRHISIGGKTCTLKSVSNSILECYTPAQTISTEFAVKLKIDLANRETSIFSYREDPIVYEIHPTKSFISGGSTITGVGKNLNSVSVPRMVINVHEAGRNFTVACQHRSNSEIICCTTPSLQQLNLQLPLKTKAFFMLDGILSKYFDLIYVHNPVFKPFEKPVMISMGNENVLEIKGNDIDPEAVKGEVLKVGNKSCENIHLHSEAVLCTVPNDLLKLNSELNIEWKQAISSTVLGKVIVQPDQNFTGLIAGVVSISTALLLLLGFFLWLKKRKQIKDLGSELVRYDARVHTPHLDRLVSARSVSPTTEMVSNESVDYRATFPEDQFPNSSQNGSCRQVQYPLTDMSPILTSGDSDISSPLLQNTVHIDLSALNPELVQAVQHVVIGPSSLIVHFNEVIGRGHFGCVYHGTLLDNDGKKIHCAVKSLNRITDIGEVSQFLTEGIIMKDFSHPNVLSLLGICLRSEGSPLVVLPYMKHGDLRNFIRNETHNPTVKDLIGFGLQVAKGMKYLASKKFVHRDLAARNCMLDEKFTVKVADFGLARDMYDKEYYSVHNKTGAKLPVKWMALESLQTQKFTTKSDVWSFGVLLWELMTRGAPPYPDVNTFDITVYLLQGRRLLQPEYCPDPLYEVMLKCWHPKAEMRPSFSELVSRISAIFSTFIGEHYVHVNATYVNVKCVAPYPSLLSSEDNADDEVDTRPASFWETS
Nature of the experiment: flow cytometry on HEK293-Hu c-Met cells.
With B1, the EC50 turned out to be 0.396 nM.

On to B2, for which a half-maximal effect (EC50) was put at 0.54 nM.

For B3, the concentration giving a half-maximal response (EC50) amounted to 0.732 nM.

In turn, B4 gave an EC50 of 1.73 nM.

B5 registered an EC50 of 0.765 nM.

In turn, B6 registered an EC50 of 1.39 nM.

Another experiment addresses T3, human c-Met on HEK293T cells …. Nature of the experiment: flow cytometry on HEK293-Hu c-Met cells, first EC50 column.
Turning to B1, a half-maximal effect (EC50) was put at 0.323 nM.

For the molecule B7, it took 0.821 nM to reach a half-maximal effect (EC50).

Molecule B2 yielded a half-maximal effective concentration (EC50) of 1.03 nM.

For the molecule B8, a half-maximal effect (EC50) was put at 0.947 nM.

B9 returned a half-maximal effective concentration (EC50) of 1.9 nM.

B10 gave a concentration for a half-maximal effect (EC50) of 0.452 nM.

The molecule B6 registered a concentration giving a half-maximal response (EC50) of 1.25 nM.
